{"source": "paper PMC10058814", "about": "“Identification of a Thermostable Levansucrase from Pseudomonas orientalis That Allows Unique Product Specificity at Different Temperatures” (Polymers, 2023)", "substrate": "OC[C@H]1O[C@@](CO)(O[C@H]2O[C@H](CO)[C@@H](O)[C@H](O)[C@H]2O)[C@@H](O)[C@@H]1O", "assay": "kinetics of glucose and fructose release; nonlinear Michaelis-Menten fit", "type": "biochemical, Celerinatantimonas diazotrophica", "settings": "hydrolysis reaction; assay conditions for Cedi-LS not stated separately", "source_text": "kinetics of glucose and fructose release; nonlinear Michaelis-Menten fit on Cedi-LS"}
{"protein": "Cedi-LS (Celerinatantimonas diazotrophica) (protein, recombinant levansucrase from the authors' earlier work; construct not described here) MTLQDKVMTTAWSRADALKVHADDPTTTQPEVSISFPTMDENLFIWDTLPLRTLDGSIVSVDGWSVIFTLTAIKDPETYKNADGSYDITTDWENRHGRARIYYWYAKDSKNWILGGRVMREGVSPTTREWAGTPILLNDQGDIELYYTCVTPGATIAKVRGKITTTENAVELSEFDHVTELFSADGFYYQTEEQNQFWNFRDPSPFIDPKDGRLYMVFEGNVAGNRGSHEITTTDMGDVPPGYSDVGGARYQAGCIGLAVATDTDGNNWQLLPPLITAVGVNDQTERPHFVFKDGKYYLFTISHKYTYADGLTGPDGVYGFVSDSLFGPYQPLNGSGLVLGNPSSQPFQTYSHCVMPNGLVTSFIDSVPSTSDDDYDGDYRIGGTEAPTVQIKLEGNQTFMVKEFDYGFIPPMKNIVLQ", "values": [{"measurement": "Km", "result": "57 ± 2", "unit": "mM"}, {"measurement": "kcat", "result": "332 ± 22", "unit": "s⁻¹"}, {"measurement": "kcat/Km", "result": 5800, "unit": "M⁻¹ s⁻¹"}]}
